Results on four substances are retold here after US10550151B2, “Cell-penetrating compositions and methods using same” (Yale University, priority 2013, dated 2020).

The target in one data set is T1, eNOS (Bos taurus, UniProt P29473).
T1 construct: effect of Endo5 fused to Cav (endo5-Cav) on NO release by cultured BAEC; endogenous in cells; host or cells: BAEC (cultured endothelial cells)
T1 sequence (P29473 2-1205 limits assumed): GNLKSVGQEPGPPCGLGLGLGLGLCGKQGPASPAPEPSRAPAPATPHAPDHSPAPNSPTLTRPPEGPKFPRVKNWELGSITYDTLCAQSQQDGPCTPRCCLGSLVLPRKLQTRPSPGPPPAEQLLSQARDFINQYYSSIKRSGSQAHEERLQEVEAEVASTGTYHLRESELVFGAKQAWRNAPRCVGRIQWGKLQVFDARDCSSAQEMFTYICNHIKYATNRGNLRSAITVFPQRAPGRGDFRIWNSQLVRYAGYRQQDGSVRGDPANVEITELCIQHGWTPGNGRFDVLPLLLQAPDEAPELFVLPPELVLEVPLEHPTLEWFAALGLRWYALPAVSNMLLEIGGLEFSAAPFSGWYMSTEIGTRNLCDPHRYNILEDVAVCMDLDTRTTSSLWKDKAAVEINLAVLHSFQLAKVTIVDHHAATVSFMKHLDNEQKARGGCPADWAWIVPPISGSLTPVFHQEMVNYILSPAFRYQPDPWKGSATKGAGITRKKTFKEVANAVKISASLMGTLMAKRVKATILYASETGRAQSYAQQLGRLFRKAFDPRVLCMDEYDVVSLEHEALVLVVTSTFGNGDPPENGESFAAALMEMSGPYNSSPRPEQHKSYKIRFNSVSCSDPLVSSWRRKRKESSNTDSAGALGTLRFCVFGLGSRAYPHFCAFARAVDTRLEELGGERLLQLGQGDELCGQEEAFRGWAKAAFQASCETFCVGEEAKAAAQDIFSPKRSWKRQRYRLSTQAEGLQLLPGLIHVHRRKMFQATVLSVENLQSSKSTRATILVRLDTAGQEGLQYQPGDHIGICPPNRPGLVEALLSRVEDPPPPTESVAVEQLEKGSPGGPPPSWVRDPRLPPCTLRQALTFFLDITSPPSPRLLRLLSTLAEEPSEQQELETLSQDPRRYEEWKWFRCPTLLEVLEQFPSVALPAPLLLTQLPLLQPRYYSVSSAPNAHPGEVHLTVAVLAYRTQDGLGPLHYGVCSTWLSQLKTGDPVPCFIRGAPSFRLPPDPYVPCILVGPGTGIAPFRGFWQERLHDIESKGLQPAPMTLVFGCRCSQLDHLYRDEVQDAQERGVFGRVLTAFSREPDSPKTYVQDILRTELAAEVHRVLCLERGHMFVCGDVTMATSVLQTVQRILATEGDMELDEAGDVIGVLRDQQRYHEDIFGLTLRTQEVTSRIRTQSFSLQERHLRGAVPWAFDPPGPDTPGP
Nature of the data set: VEGF-induced NO release by cultured BAEC (NO chemiluminescence). The data set is classed as cell-based, bovine. The settings on record: for inhibition of VEGF-induced NO release: 6 h pretreatment; for effect on basal (unstimulated) NO release: six-hour pretreatment, no VEGF. The method, then: Briefly, confluent BAEC were incubated in serum-free DMEM for 6 hours with peptides. Media was removed and fresh serum-free DMEM was added, with or without VEGF (10^−9 M) for 30 min. Media was collected, cells were trypsinized and counted, and nitrites levels in the supernatant were determined by using a Sievers NO chemiluminescence analyzer.
AP-Cav blocks agonist-induced eNOS activity in cultured endothelial cells (Bucci et al., 2000, Nat. Med. 6:1362-7), and this biological activity is dependent on AP-Cav's internalization, dosage and pretreatment time. In the present study, the uptake potential of Endo5 was compared with that of AP by testing the effect of Endo5 fused to Cav (endo5-Cav) on NO release by cultured BAEC.

The next data set deals with HUVEC. Nature of the data set: CPP imaging in live HUVEC (epifluorescence, pulse/chase). The following applies: for staining pattern after 1 h pulse: 37° C.; for staining pattern after two-hour chase: 2 h chase in absence of CPP. It counts as cell-based, human. Here is the method: Freshly isolated HUVEC were grown in M199 media supplemented with glutamine, 10% FBS and endothelial cell growth supplement on Petri dishes with glass bottom. Since CPPs bind non-specifically to glass, the background fluorescence was reduced by pretreating glass-bottom Petri dishes with a blocking solution containing unlabelled AP and Endo5 for 30 min (5×10^−5 M) in colorless M199 media with 1% FBS. After cell seeding, media was removed and carboxyfluorescin-labeled Endo5 and Rhodamine-labeled AP were added to cells (10^−5 M) and cells were incubated at 37° C. and 5% CO2 for 1 hour (pulse). Media was removed, cells were rinsed once with warm culture media and peptide uptake was rapidly visualized on a Zess Axiovert inverted fluorescence microscope by performing a Z-stack of captured images followed by volume deconvolution (Openlab software). The new media was left on cells for an additional 2 hours (total 3 hours) to chase CPP localization, and cells were visualized again (chase).
In the present study, epifluorescence microscopy experiments were performed in live HUVEC to compare the uptake mechanism of Endo5 to AP. After blocking glass bottom Petri dishes with unlabelled AP and Endo5 to minimize non-specific binding of labeled peptides, freshly isolated HUVEC were grown to 50% confluent and labeled with a “pulse” of carboxyfluorescein-Endo5 and rhodamine-AP (10^−6M) for 1 h, rinsed, followed by a two-hour “chase” for a total of 3 hours. Deconvoluted images were captured after the “pulse” and “chase” periods. […] (FIG. 5A). Nuclear staining was nearly completely absent (dark central area).

Data set [1] in a line: Peptide solubility in NO release dose-response experiment. The following applies: above 2.5×10^-5 M. The data set is classed as physicochemical.
Where [2] appears, read: peptide 10^-5 M, VEGF 10^-9 M 30 min.

Where no end group is shown, it is not given here.

For the substance “Endo5-CavAB: Endo5 fused to the Cav AB domain (caveolin-1 amino acids 82-95, SEQ ID NO: 6); a 19-mer peptide (RRPPRDGIWKASFTTFTVT)”, the “inhibition of VEGF-induced NO release” value was 49% with eNOS (peptide 2×10^-6 M) and “completely blocked” with eNOS (setting [2]).
With “RQIKIWFQNRRMKWKK [AP, reference compound]”, the “inhibition of VEGF-induced NO release” value in the data set with eNOS (setting [2]) was “no significant effect”. For the same substance, in the data set with eNOS (peptide 10^-5 M), the “effect on basal (unstimulated) NO release” value was “no significant effect”. In addition, in the data set on HUVEC, the “staining pattern after 1 h pulse” value was “diffuse punctate cytoplasmic staining” and the “staining pattern after two-hour chase” value is “more concentrated rather than diffuse pattern”.
As to “RQIKIWFQNRRMKWKKDGIWKASFTTFTVTKYWFYR [AP-Cav]”, the solubility limit entry in data set [1] is given as “peptide insolubility at greater dose”.
For “RRPPR [Endo5, short five-amino acid cell-permeable peptide]”, the “inhibition of VEGF-induced NO release” value with eNOS (setting [2]) is given as “no significant effect”. For the same substance, the “effect on basal (unstimulated) NO release” value in the data set with eNOS (peptide 10^-5 M) is “no significant effect”. In addition, in the data set with HUVEC, the “staining pattern after 1 h pulse” value is “diffuse punctate cytoplasmic staining” and the “staining pattern after two-hour chase” value was “more concentrated rather than diffuse pattern”.
